According to the Human Domainome abundance scans (Beltran et al. 2025):
± gives the uncertainty stated by the source.

test: abundance fitness (aPCA) (normalised: wild type 0, dead -1); higher = more abundant; growth selection in yeast, the domain comes from the species named; conditions: Homo sapiens

“SAFB-like transcription modulator L48P, Q9NWH9” and “SAFB-like transcription modulator L48R, Q9NWH9” are within error of each other in abundance fitness: -0.489 ± 0.048 for the first, -0.537 ± 0.043 for the second.

“SAFB-like transcription modulator L48S, Q9NWH9” and “SAFB-like transcription modulator L48T, Q9NWH9” are within error of each other in abundance fitness: -0.585 ± 0.039 for the first, -0.538 ± 0.043 for the second.

“SAFB-like transcription modulator L48V, Q9NWH9” and “SAFB-like transcription modulator L48W, Q9NWH9” are within error of each other in abundance fitness: -0.607 ± 0.054 for the first, -0.613 ± 0.04 for the second.

Going from “SAFB-like transcription modulator L48Y, Q9NWH9” to “SAFB-like transcription modulator L52A, Q9NWH9”, the abundance fitness rises from -0.788 ± 0.043 to -0.702 ± 0.04.

First: SAFB-like transcription modulator L52C, Q9NWH9
Second: SAFB-like transcription modulator L52D, Q9NWH9
The abundance fitness of the first is lower: -0.827 ± 0.12 for the first, -0.497 ± 0.05 for the second.

“SAFB-like transcription modulator L52E, Q9NWH9” and “SAFB-like transcription modulator L52F, Q9NWH9” are within error of each other in abundance fitness: -0.456 ± 0.15 for the first, -0.568 ± 0.12 for the second.

Compared with “SAFB-like transcription modulator L52G, Q9NWH9”, “SAFB-like transcription modulator L52M, Q9NWH9” is higher in abundance fitness: -0.611 ± 0.048 for the first, -0.456 ± 0.1 for the second.

“SAFB-like transcription modulator L52N, Q9NWH9” and “SAFB-like transcription modulator L52P, Q9NWH9” are within error of each other in abundance fitness: -0.385 ± 0.23 for the first, -0.467 ± 0.12 for the second.

“SAFB-like transcription modulator L52Q, Q9NWH9” and “SAFB-like transcription modulator L52R, Q9NWH9” are within error of each other in abundance fitness: -0.927 ± 0.45 for the first, -0.808 ± 0.057 for the second.

“SAFB-like transcription modulator L52S, Q9NWH9” and “SAFB-like transcription modulator L52T, Q9NWH9” are within error of each other in abundance fitness: -0.563 ± 0.087 for the first, -0.642 ± 0.16 for the second.

Compared with “SAFB-like transcription modulator L52V, Q9NWH9”, “SAFB-like transcription modulator L52W, Q9NWH9” is lower in abundance fitness: -0.412 ± 0.077 for the first, -1.15 ± 0.14 for the second.

Going from “SAFB-like transcription modulator L52Y, Q9NWH9” to “SAFB-like transcription modulator L68A, Q9NWH9”, the abundance fitness rises from -0.651 ± 0.17 to 0.219 ± 0.15.

“SAFB-like transcription modulator L68C, Q9NWH9” and “SAFB-like transcription modulator L68F, Q9NWH9” are within error of each other in abundance fitness: -0.092 ± 0.097 for the first, -0.164 ± 0.09 for the second.

“SAFB-like transcription modulator L68G, Q9NWH9” and “SAFB-like transcription modulator L68H, Q9NWH9” are within error of each other in abundance fitness: -0.165 ± 0.086 for the first, 0.053 ± 0.29 for the second.

Compared with “SAFB-like transcription modulator L68I, Q9NWH9”, “SAFB-like transcription modulator L68M, Q9NWH9” is lower in abundance fitness: 0.295 ± 0.089 for the first, -0.188 ± 0.061 for the second.

First: SAFB-like transcription modulator L68P, Q9NWH9
Second: SAFB-like transcription modulator L68Q, Q9NWH9
The abundance fitness of the first is higher: 0.022 ± 0.062 for the first, -0.14 ± 0.075 for the second.

“SAFB-like transcription modulator L68R, Q9NWH9” and “SAFB-like transcription modulator L68S, Q9NWH9” are within error of each other in abundance fitness: -0.165 ± 0.067 for the first, -0.16 ± 0.063 for the second.

“SAFB-like transcription modulator L68T, Q9NWH9” and “SAFB-like transcription modulator L68V, Q9NWH9” are within error of each other in abundance fitness: -0.135 ± 0.065 for the first, -0.075 ± 0.063 for the second.

First: SAFB-like transcription modulator L68W, Q9NWH9
Second: SAFB-like transcription modulator L68Y, Q9NWH9
The abundance fitness of the first is higher: -0.181 ± 0.052 for the first, -0.763 ± 0.31 for the second.

“SAFB-like transcription modulator N38A, Q9NWH9” and “SAFB-like transcription modulator N38D, Q9NWH9” are within error of each other in abundance fitness: -0.296 ± 0.063 for the first, -0.222 ± 0.086 for the second.

“SAFB-like transcription modulator N38E, Q9NWH9” and “SAFB-like transcription modulator N38F, Q9NWH9” are within error of each other in abundance fitness: -0.153 ± 0.034 for the first, -0.24 ± 0.083 for the second.

Going from “SAFB-like transcription modulator N38G, Q9NWH9” to “SAFB-like transcription modulator N38H, Q9NWH9”, the abundance fitness falls from -0.002 ± 0.047 to -0.492 ± 0.2.

Compared with “SAFB-like transcription modulator N38K, Q9NWH9”, “SAFB-like transcription modulator N38L, Q9NWH9” is lower in abundance fitness: -0.092 ± 0.047 for the first, -0.247 ± 0.05 for the second.

First: SAFB-like transcription modulator N38M, Q9NWH9
Second: SAFB-like transcription modulator N38P, Q9NWH9
The abundance fitness of the first is higher: -0.192 ± 0.057 for the first, -1.06 ± 0.15 for the second.

First: SAFB-like transcription modulator N38Q, Q9NWH9
Second: SAFB-like transcription modulator N38R, Q9NWH9
The abundance fitness of the first is higher: -0.04 ± 0.046 for the first, -0.141 ± 0.044 for the second.

First: SAFB-like transcription modulator N38S, Q9NWH9
Second: SAFB-like transcription modulator N38T, Q9NWH9
The abundance fitness of the first is higher: -0.105 ± 0.048 for the first, -0.233 ± 0.073 for the second.

Going from “SAFB-like transcription modulator N38V, Q9NWH9” to “SAFB-like transcription modulator N38W, Q9NWH9”, the abundance fitness rises from -0.688 ± 0.052 to -0.368 ± 0.037.

First: SAFB-like transcription modulator N38Y, Q9NWH9
Second: SAFB-like transcription modulator N65A, Q9NWH9
The abundance fitness of the first is lower: -0.455 ± 0.11 for the first, -0.236 ± 0.065 for the second.

“SAFB-like transcription modulator N65C, Q9NWH9” and “SAFB-like transcription modulator N65D, Q9NWH9” are within error of each other in abundance fitness: -0.126 ± 0.074 for the first, -0.186 ± 0.082 for the second.

“SAFB-like transcription modulator N65E, Q9NWH9” and “SAFB-like transcription modulator N65F, Q9NWH9” are within error of each other in abundance fitness: -0.165 ± 0.069 for the first, -0.101 ± 0.065 for the second.

Going from “SAFB-like transcription modulator N65G, Q9NWH9” to “SAFB-like transcription modulator N65H, Q9NWH9”, the abundance fitness rises from -0.365 ± 0.052 to -0.166 ± 0.084.

Compared with “SAFB-like transcription modulator N65K, Q9NWH9”, “SAFB-like transcription modulator N65L, Q9NWH9” is lower in abundance fitness: -0.103 ± 0.038 for the first, -0.206 ± 0.035 for the second.

Compared with “SAFB-like transcription modulator N65M, Q9NWH9”, “SAFB-like transcription modulator N65P, Q9NWH9” is lower in abundance fitness: -0.135 ± 0.055 for the first, -0.575 ± 0.036 for the second.

“SAFB-like transcription modulator N65Q, Q9NWH9” and “SAFB-like transcription modulator N65R, Q9NWH9” are within error of each other in abundance fitness: -0.176 ± 0.076 for the first, -0.094 ± 0.045 for the second.

Compared with “SAFB-like transcription modulator N65S, Q9NWH9”, “SAFB-like transcription modulator N65T, Q9NWH9” is lower in abundance fitness: -0.162 ± 0.04 for the first, -0.281 ± 0.059 for the second.

Compared with “SAFB-like transcription modulator N65W, Q9NWH9”, “SAFB-like transcription modulator N65Y, Q9NWH9” is higher in abundance fitness: -0.339 ± 0.071 for the first, -0.191 ± 0.065 for the second.

Compared with “SAFB-like transcription modulator P63A, Q9NWH9”, “SAFB-like transcription modulator P63C, Q9NWH9” is higher in abundance fitness: -0.23 ± 0.053 for the first, -0.134 ± 0.04 for the second.

Going from “SAFB-like transcription modulator P63D, Q9NWH9” to “SAFB-like transcription modulator P63E, Q9NWH9”, the abundance fitness rises from -0.553 ± 0.064 to -0.337 ± 0.058.

Compared with “SAFB-like transcription modulator P63F, Q9NWH9”, “SAFB-like transcription modulator P63H, Q9NWH9” is lower in abundance fitness: -0.257 ± 0.045 for the first, -0.397 ± 0.049 for the second.

Going from “SAFB-like transcription modulator P63I, Q9NWH9” to “SAFB-like transcription modulator P63K, Q9NWH9”, the abundance fitness falls from -0.165 ± 0.057 to -0.354 ± 0.074.

“SAFB-like transcription modulator P63L, Q9NWH9” and “SAFB-like transcription modulator P63M, Q9NWH9” are within error of each other in abundance fitness: -0.213 ± 0.038 for the first, -0.264 ± 0.068 for the second.

“SAFB-like transcription modulator P63N, Q9NWH9” and “SAFB-like transcription modulator P63Q, Q9NWH9” are within error of each other in abundance fitness: -0.422 ± 0.045 for the first, -0.48 ± 0.082 for the second.

First: SAFB-like transcription modulator P63R, Q9NWH9
Second: SAFB-like transcription modulator P63S, Q9NWH9
The abundance fitness of the first is lower: -0.478 ± 0.053 for the first, -0.17 ± 0.049 for the second.

“SAFB-like transcription modulator P63T, Q9NWH9” and “SAFB-like transcription modulator P63V, Q9NWH9” are within error of each other in abundance fitness: -0.053 ± 0.065 for the first, -0.09 ± 0.034 for the second.

“SAFB-like transcription modulator P63W, Q9NWH9” and “SAFB-like transcription modulator P63Y, Q9NWH9” are within error of each other in abundance fitness: -0.245 ± 0.059 for the first, -0.214 ± 0.051 for the second.

“SAFB-like transcription modulator Q54A, Q9NWH9” and “SAFB-like transcription modulator Q54C, Q9NWH9” are within error of each other in abundance fitness: -0.167 ± 0.083 for the first, -0.209 ± 0.087 for the second.

First: SAFB-like transcription modulator Q54F, Q9NWH9
Second: SAFB-like transcription modulator Q54G, Q9NWH9
The abundance fitness of the first is higher: -0.068 ± 0.1 for the first, -0.258 ± 0.069 for the second.

“SAFB-like transcription modulator Q54K, Q9NWH9” and “SAFB-like transcription modulator Q54L, Q9NWH9” are within error of each other in abundance fitness: 0.057 ± 0.1 for the first, 0 ± 0.072 for the second.

“SAFB-like transcription modulator Q54M, Q9NWH9” and “SAFB-like transcription modulator Q54N, Q9NWH9” are within error of each other in abundance fitness: -0.009 ± 0.1 for the first, -0.037 ± 0.24 for the second.

Going from “SAFB-like transcription modulator Q54P, Q9NWH9” to “SAFB-like transcription modulator Q54R, Q9NWH9”, the abundance fitness rises from -0.666 ± 0.3 to -0.106 ± 0.045.

Compared with “SAFB-like transcription modulator Q54S, Q9NWH9”, “SAFB-like transcription modulator Q54T, Q9NWH9” is higher in abundance fitness: -0.526 ± 0.1 for the first, 0.146 ± 0.09 for the second.

“SAFB-like transcription modulator Q54V, Q9NWH9” gave an abundance fitness of -0.209 ± 0.078.
